According to article PMC10397247:

Assays:
Test in all cases: two-hybrid library CCNG1;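 also: natural log of median RNA to DNA barcode read ratio; higher means stronger binding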
[1] = molecular target: T1, 4H619-bA
T1 chain: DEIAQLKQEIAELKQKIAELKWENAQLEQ

[2] = molecular target: T2, 4H3631-bA
T2 chain: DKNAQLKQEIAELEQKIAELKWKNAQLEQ

[3] = molecular target: T3, 4H3974-bA
T3 chain: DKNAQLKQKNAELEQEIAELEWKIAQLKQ

[4] = molecular target: T4, 4H3129-bA
T4 chain: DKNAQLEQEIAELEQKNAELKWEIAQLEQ

[5] = molecular target: T5, 4H3414-bA
T5 chain: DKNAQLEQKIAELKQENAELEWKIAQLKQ

[6] = molecular target: T6, 4H3817-bA
T6 chain: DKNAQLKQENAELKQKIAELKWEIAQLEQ

[7] = molecular target: T7, 4H3638-bA
T7 chain: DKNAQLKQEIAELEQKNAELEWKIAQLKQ

[8] = molecular target: T8, 4H570-bA
T8 chain: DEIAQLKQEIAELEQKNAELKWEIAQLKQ

[9] = molecular target: T9, P11A
T9 chain: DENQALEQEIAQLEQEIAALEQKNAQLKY

[10] = molecular target: T10, 4H584-bA
T10 chain: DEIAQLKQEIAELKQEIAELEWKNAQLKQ

[11] = molecular target: T11, 4H906-bA
T11 chain: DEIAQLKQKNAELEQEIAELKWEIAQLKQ

[12] = molecular target: T12, 4H850-bA
T12 chain: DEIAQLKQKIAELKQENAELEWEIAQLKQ

[13] = molecular target: T13, 4H3172-bA
T13 chain: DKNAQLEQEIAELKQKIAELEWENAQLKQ

[14] = molecular target: T14, 4H56-bA
T14 chain: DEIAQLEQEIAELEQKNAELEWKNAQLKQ

[15] = molecular target: T15, 4H2931-bA
T15 chain: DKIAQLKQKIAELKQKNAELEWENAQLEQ

[16] = molecular target: T16, 4H3381-bH
T16 chain: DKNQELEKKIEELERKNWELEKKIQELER

[17] = molecular target: T17, 4H3381-bA
T17 chain: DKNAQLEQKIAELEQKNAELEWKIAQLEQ

[18] = molecular target: T18, 4H3041-bA
T18 chain: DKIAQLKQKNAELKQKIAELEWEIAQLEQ

[19] = molecular target: T19, 4H730-bA
T19 chain: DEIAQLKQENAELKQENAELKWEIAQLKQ

[20] = molecular target: T20, 4H3364-bA
T20 chain: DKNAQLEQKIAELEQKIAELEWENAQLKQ

[21] = molecular target: T21, 4H796-bA
T21 chain: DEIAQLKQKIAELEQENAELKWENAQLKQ

[22] = molecular target: T22, 4H3497-bA
T22 chain: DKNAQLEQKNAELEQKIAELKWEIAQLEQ

[23] = molecular target: T23, 4H349-bA
T23 chain: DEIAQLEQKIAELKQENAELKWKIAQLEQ

[24] = molecular target: T24, 4H949-bA
T24 chain: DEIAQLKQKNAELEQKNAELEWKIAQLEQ

[25] = molecular target: T25, 4H3297-bA
T25 chain: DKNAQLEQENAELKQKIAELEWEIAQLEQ

[26] = molecular target: T26, 4H932-bA
T26 chain: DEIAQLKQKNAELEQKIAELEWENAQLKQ

For DKNAQLEQEIAELEQKNAELKWEIAQLEQ [4H3129-bA], the interaction score [1] was -1.59, the interaction score [2] was -0.762 and the interaction score [3] was -0.932. For the same binder, the interaction score [4] was -0.78, the interaction score [5] was 2.61 and the interaction score [6] was -0.661. The interaction score [7] was 0, the interaction score [8] was -1.13 and the interaction score [9] was 0.0953. It also gave an interaction score [10] of -1.75, an interaction score [11] of -0.839 and an interaction score [12] of 0.0228. For the same binder, the interaction score [13] was -1.38.

For DKIAQLKQKIAELKQKNAELEWENAQLEQ [4H2931-bA], the interaction score [14] was 0.684, the interaction score [15] was -0.604 and the interaction score [16] was -0.208. The interaction score [17] was -1.36, the interaction score [18] was -0.32 and the interaction score [19] was -1.14. For the same binder, the interaction score [20] was -1.11, the interaction score [9] was 1.31 and the interaction score [21] was -0.693. The interaction score [22] was -1.04, the interaction score [23] was -1.08 and the interaction score [24] was -1.37. It also gave an interaction score [25] of -0.644 and an interaction score [26] of -1.36.
